Drawing on doi:10.1101/2022.03.11.483953 (2022), this text covers Kd for one molecule.

No end group written: not given here.

Assay [1] deals with T1, Cdc42^2-178 (C-terminally truncated Cdc42 lacking its geranylgeranylation motif) (UniProt Q05062 2-178). The assay is described as follows: FP; GDP-loaded Cdc42.
The target in assay [2] is T1, Cdc42^2-178 (C-terminally truncated …). The assay is described as follows: FP; GMPPNP-loaded Cdc42.

T1 sequence (Q05062 2-178): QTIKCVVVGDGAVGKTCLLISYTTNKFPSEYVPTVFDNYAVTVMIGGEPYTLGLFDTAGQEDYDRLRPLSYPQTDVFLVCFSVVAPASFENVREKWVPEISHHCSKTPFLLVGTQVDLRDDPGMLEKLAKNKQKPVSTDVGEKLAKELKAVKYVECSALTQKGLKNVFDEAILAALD

One may read the Kd as the constant that tells how readily two partners part at equilibrium. Low readings indicate a tighter complex, high ones a looser complex. Take QISTPSDFMHIVHMGPAPVMELQQNFIDLQ (also: FITC label, position not given here) [FITC-labeled CRIB peptide of C. elegans MRCK1 (residues 1543-1572)]: the dissociation constant Kd came to 1120 µM in assay [1] and 264 µM in assay [2].
